Numbered stars: 1 amine (or outer) side, 2 acyl side, 3 side chain; on linkers, the order of the positions; unused ones are H or OH. Bridge positions count the residues as written; N and C are the ends. Side chains are listed from the residue outwards. Ends that are not written are not given here. * marks the point of attachment. C20 diacid = O=C(O)CCCCCCCCCCCCCCCCCCC(=O)*; γGlu = O=C(O)[C@H](CCC(=O)[*:2])N[*:1]; AEEA = NCCOCCOCC(=O)O
T1: human calcitonin receptor (human, UniProt P30988 25-474)
T1 construct: whole, on cells; Used as cell membranes; also called hCTR; hCT
T1 sequence (looked up): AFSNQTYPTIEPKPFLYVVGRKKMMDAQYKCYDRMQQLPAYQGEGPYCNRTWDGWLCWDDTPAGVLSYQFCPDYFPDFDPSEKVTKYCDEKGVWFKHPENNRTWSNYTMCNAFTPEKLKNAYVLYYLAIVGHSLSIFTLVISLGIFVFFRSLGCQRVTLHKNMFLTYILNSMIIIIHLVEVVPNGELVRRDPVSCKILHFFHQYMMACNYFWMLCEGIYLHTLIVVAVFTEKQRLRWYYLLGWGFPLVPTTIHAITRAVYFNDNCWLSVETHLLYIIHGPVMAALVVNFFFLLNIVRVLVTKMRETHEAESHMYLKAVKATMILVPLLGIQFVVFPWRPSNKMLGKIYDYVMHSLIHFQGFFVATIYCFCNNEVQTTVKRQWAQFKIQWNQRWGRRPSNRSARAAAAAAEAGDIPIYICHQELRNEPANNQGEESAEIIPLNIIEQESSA

T2: human amylin receptor (amylin 3(a) receptor: human calcitonin receptor with RAMP-3) (human, UniProt P30988 25-474; O60896 24-148)
T2 construct: whole, on cells; Used as cell membranes of the Amylin 3(a)/CRE-luc BHK cells; the species of RAMP-3 is only implied by the name human amylin receptor; also called hAmylin-R; hAmylinR
T2 sequence (looked up) 1: T1 sequence (looked up)
T2 sequence (looked up) 2: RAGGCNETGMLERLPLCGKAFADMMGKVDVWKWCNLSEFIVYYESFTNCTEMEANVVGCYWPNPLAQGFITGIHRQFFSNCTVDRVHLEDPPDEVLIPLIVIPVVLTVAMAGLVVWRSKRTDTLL

T3: human calcitonin receptor (human, UniProt P30988 25-474)
T3 sequence (looked up): T1 sequence (looked up)

B1: N^ε1-[2-[2-[2-[[2-[2-[2-[[(4S)-4-carboxy-4-(19-carboxynonadecanoylamino)butanoyl]amino]ethoxy]ethoxy]acetyl]amino]ethoxy]ethoxy]acetyl]-[Arg17,Pro21,Pro27,Arg34 … (peptide)
peptide: K([AEEA-AEEA-γGlu-C20 diacid])CNTATCATQRLANFLRHSSPNFGAIPSSTNVGRNTY-NH2
modifications: disulfide 2-7; N-terminus assumed
SMILES: CC[C@H](C)[C@H](NC(=O)[C@H](C)NC(=O)CNC(=O)[C@H](Cc1ccccc1)NC(=O)[C@H](CC(N)=O)NC(=O)[C@@H]1CCCN1C(=O)[C@H](CO)NC(=O)[C@H](CO)NC(=O)[C@H](Cc1c[nH]cn1)NC(=O)[C@H](CCCNC(=N)N)NC(=O)[C@H](CC(C)C)NC(=O)[C@H](Cc1ccccc1)NC(=O)[C@H](CC(N)=O)NC(=O)[C@H](C)NC(=O)[C@H](CC(C)C)NC(=O)[C@H](CCCNC(=N)N)NC(=O)[C@H](CCC(N)=O)NC(=O)[C@@H](NC(=O)[C@H](C)NC(=O)[C@@H]1CSSC[C@H](NC(=O)[C@@H](N)CCCCNC(=O)COCCOCCNC(=O)COCCOCCNC(=O)CC[C@H](NC(=O)CCCCCCCCCCCCCCCCCCC(=O)O)C(=O)O)C(=O)N[C@@H](CC(N)=O)C(=O)N[C@@H]([C@@H](C)O)C(=O)N[C@@H](C)C(=O)N[C@@H]([C@@H](C)O)C(=O)N1)[C@@H](C)O)C(=O)N1CCC[C@H]1C(=O)N[C@@H](CO)C(=O)N[C@@H](CO)C(=O)N[C@H](C(=O)N[C@@H](CC(N)=O)C(=O)N[C@H](C(=O)NCC(=O)N[C@@H](CCCNC(=N)N)C(=O)N[C@@H](CC(N)=O)C(=O)N[C@H](C(=O)N[C@@H](Cc1ccc(O)cc1)C(N)=O)[C@@H](C)O)C(C)C)[C@@H](C)O
notes: also called compound 95
B2: N^ε1-[(4S)-4-carboxy-4-(19-carboxynonadecanoylamino)butanoyl]-[Arg14,Arg17,Pro21,Pro27]-h-amylin (peptide)
peptide: K([γGlu-C20 diacid])CNTATCATQRLARFLRHSSPNFGAIPSSTNVGSNTY-NH2
modifications: disulfide 2-7; N-terminus assumed
SMILES: CC[C@H](C)[C@H](NC(=O)[C@H](C)NC(=O)CNC(=O)[C@H](Cc1ccccc1)NC(=O)[C@H](CC(N)=O)NC(=O)[C@@H]1CCCN1C(=O)[C@H](CO)NC(=O)[C@H](CO)NC(=O)[C@H](Cc1c[nH]cn1)NC(=O)[C@H](CCCNC(=N)N)NC(=O)[C@H](CC(C)C)NC(=O)[C@H](Cc1ccccc1)NC(=O)[C@H](CCCNC(=N)N)NC(=O)[C@H](C)NC(=O)[C@H](CC(C)C)NC(=O)[C@H](CCCNC(=N)N)NC(=O)[C@H](CCC(N)=O)NC(=O)[C@@H](NC(=O)[C@H](C)NC(=O)[C@@H]1CSSC[C@H](NC(=O)[C@@H](N)CCCCNC(=O)CC[C@H](NC(=O)CCCCCCCCCCCCCCCCCCC(=O)O)C(=O)O)C(=O)N[C@@H](CC(N)=O)C(=O)N[C@@H]([C@@H](C)O)C(=O)N[C@@H](C)C(=O)N[C@@H]([C@@H](C)O)C(=O)N1)[C@@H](C)O)C(=O)N1CCC[C@H]1C(=O)N[C@@H](CO)C(=O)N[C@@H](CO)C(=O)N[C@H](C(=O)N[C@@H](CC(N)=O)C(=O)N[C@H](C(=O)NCC(=O)N[C@@H](CO)C(=O)N[C@@H](CC(N)=O)C(=O)N[C@H](C(=O)N[C@@H](Cc1ccc(O)cc1)C(N)=O)[C@@H](C)O)C(C)C)[C@@H](C)O
notes: also called compound 83
B3: N^ε1-[(4S)-4-carboxy-4-[[(4S)-4-carboxy-4-(19-carboxynonadecanoylamino)butanoyl]amino]butanoyl]-[Glu14,Arg17,Pro21,Pro27,His34]-h-amylin (peptide)
peptide: K([γGlu-γGlu-C20 diacid])CNTATCATQRLAEFLRHSSPNFGAIPSSTNVGHNTY-NH2
modifications: disulfide 2-7; N-terminus assumed
SMILES: CC[C@H](C)[C@H](NC(=O)[C@H](C)NC(=O)CNC(=O)[C@H](Cc1ccccc1)NC(=O)[C@H](CC(N)=O)NC(=O)[C@@H]1CCCN1C(=O)[C@H](CO)NC(=O)[C@H](CO)NC(=O)[C@H](Cc1c[nH]cn1)NC(=O)[C@H](CCCNC(=N)N)NC(=O)[C@H](CC(C)C)NC(=O)[C@H](Cc1ccccc1)NC(=O)[C@H](CCC(=O)O)NC(=O)[C@H](C)NC(=O)[C@H](CC(C)C)NC(=O)[C@H](CCCNC(=N)N)NC(=O)[C@H](CCC(N)=O)NC(=O)[C@@H](NC(=O)[C@H](C)NC(=O)[C@@H]1CSSC[C@H](NC(=O)[C@@H](N)CCCCNC(=O)CC[C@H](NC(=O)CC[C@H](NC(=O)CCCCCCCCCCCCCCCCCCC(=O)O)C(=O)O)C(=O)O)C(=O)N[C@@H](CC(N)=O)C(=O)N[C@@H]([C@@H](C)O)C(=O)N[C@@H](C)C(=O)N[C@@H]([C@@H](C)O)C(=O)N1)[C@@H](C)O)C(=O)N1CCC[C@H]1C(=O)N[C@@H](CO)C(=O)N[C@@H](CO)C(=O)N[C@H](C(=O)N[C@@H](CC(N)=O)C(=O)N[C@H](C(=O)NCC(=O)N[C@@H](Cc1c[nH]cn1)C(=O)N[C@@H](CC(N)=O)C(=O)N[C@H](C(=O)N[C@@H](Cc1ccc(O)cc1)C(N)=O)[C@@H](C)O)C(C)C)[C@@H](C)O
notes: Synthetic acylated analogue of human amylin; also called compound 87
B4: N^ε1N^ε1-[(4S)-4-carboxy-4-(19-carboxynonadecanoylamino)butanoyl]-[His14,Arg17,Pro21,Pro27,Pro34]-h-amylin (peptide)
peptide: K([γGlu-C20 diacid])CNTATCATQRLAHFLRHSSPNFGAIPSSTNVGPNTY-NH2
modifications: disulfide 2-7; N-terminus assumed
SMILES: CC[C@H](C)[C@H](NC(=O)[C@H](C)NC(=O)CNC(=O)[C@H](Cc1ccccc1)NC(=O)[C@H](CC(N)=O)NC(=O)[C@@H]1CCCN1C(=O)[C@H](CO)NC(=O)[C@H](CO)NC(=O)[C@H](Cc1c[nH]cn1)NC(=O)[C@H](CCCNC(=N)N)NC(=O)[C@H](CC(C)C)NC(=O)[C@H](Cc1ccccc1)NC(=O)[C@H](Cc1c[nH]cn1)NC(=O)[C@H](C)NC(=O)[C@H](CC(C)C)NC(=O)[C@H](CCCNC(=N)N)NC(=O)[C@H](CCC(N)=O)NC(=O)[C@@H](NC(=O)[C@H](C)NC(=O)[C@@H]1CSSC[C@H](NC(=O)[C@@H](N)CCCCNC(=O)CC[C@H](NC(=O)CCCCCCCCCCCCCCCCCCC(=O)O)C(=O)O)C(=O)N[C@@H](CC(N)=O)C(=O)N[C@@H]([C@@H](C)O)C(=O)N[C@@H](C)C(=O)N[C@@H]([C@@H](C)O)C(=O)N1)[C@@H](C)O)C(=O)N1CCC[C@H]1C(=O)N[C@@H](CO)C(=O)N[C@@H](CO)C(=O)N[C@H](C(=O)N[C@@H](CC(N)=O)C(=O)N[C@H](C(=O)NCC(=O)N1CCC[C@H]1C(=O)N[C@@H](CC(N)=O)C(=O)N[C@H](C(=O)N[C@@H](Cc1ccc(O)cc1)C(N)=O)[C@@H](C)O)C(C)C)[C@@H](C)O
notes: Synthetic acylated analogue of human amylin; also called compound 67

Legend:
[1] = molecular target: T1, human calcitonin receptor; assay: ratio of hCTR IC50 to hAmylin-R IC50 (reference: human amylin receptor)
Outline: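 IC₅₀ values were derived by one-site competition analysis of SPA counts. Cell membranes (35 ng/μL) with SPA beads were incubated with test compounds for 120 min at 25° C in Hepes buffer, pH 7.4, containing CaCl2, MgCl₂, OA and Tween20.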

[2] = molecular target: T2, human amylin receptor (amylin 3(a) …); assay: SPA competition on BHK cell membranes, 125I-rat amylin as radioligand (Assay V)
Description: The binding assay was performed using scintillation proximity assay (SPA) beads (RPNQ0001) from PerkinElmer and cell membranes from the Amylin 3(a)/CRE-luc cells (as described in Assay (II)) were used. Membranes were prepared in the following way; the cells were rinsed with PBS and incubated with Versene for approximately 5 min before harvesting. The cells were flushed with PBS and the cell-suspension was centrifuged for 5 min at 1000 rpm. Cells were homogenized (ultrathurrax) in a buffer containing 20 mM Na-HEPES and 10 mM EDTA (pH 7.4) and centrifuged at 20.000 rpm for 15 min. The resulting pellet was resuspended, homogenized and centrifuged (20.000 rpm, 15 min) in a buffer containing 20 mM Na-HEPES and 0.1 mM EDTA (pH 7.4, buffer 2). The resulting pellet was resuspended in buffer 2 and protein concentration was measured (BCA protein Assay, Pierce). The homogenate was kept cold during the whole procedure. The membranes were kept at −80° C. until use. The assay was performed in a 384 well Optiplate (PerkinElmer) in a total volume of 40 ul. Membranes were mixed with SPA beads. Final concentration of membranes 35 ng/μL final and SPA beads was 0.05 mg/well. Test-compounds were dissolved in DMSO and further diluted in assay buffer (50 mM Hepes, pH 7.4, 1 mM CaCl2, 5 mM MgCl₂, 0.1% OA and 0.02% Tween20). […] The final mixture was incubated with shaking at 400 rpm for 120 min at 25° C. prior to centrifugation (1500 rpm, 10 min). Samples were analyzed on TopCounter™ (Packard). The IC₅₀ was calculated using (one site binding competition analysis) GraphPad Prism5 as a measure of receptor affinity.

[3] = molecular target: T1, human calcitonin receptor; assay: SPA competition on BHK cell membranes, 125I-calcitonin as radioligand (Assay VII)
Outline: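 BHK hCTR membranes 35 ng/μL + SPA beads 0.05 mg/well; buffer 50 mM Hepes pH 7.4, 1 mM CaCl2, 5 mM MgCl₂, 0.1% OA, 0.02% Tween20. 120 min, 25° C., shaking. Scintillation count; IC50 by one-site binding competition.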

[4] = molecular target: T3, human calcitonin receptor; assay: cell-based or functional assay

Row | Binder | Ratio hCT/hAmylin binding [1] | IC50 [2] [nM] | IC50 [3] [nM] | Ratio hCT/hAmylin funct. [4] | hCTR funct. EC50 (pM) [4] [pM]
1 | B1 | 63.4 | 0.967 | 61.3 |  | 
2 | B2 | 146 | 0.939 | 137 |  | 
3 | B3 |  |  |  | 3.8 | 1100
4 | B4 |  |  |  | 5.2 | 354
